How the values were obtained:
[1] = biological target: bovine serum albumin (BSA) (UniProt P02769 P02769:25-607)
[2] = biological target: toxin A (TcdA) (Clostridium difficile, UniProt P16154 SEQ:1-2710)
[3] = biological target: toxin B (TcdB) (Clostridium difficile, UniProt P18177 SEQ:2-2366)
[4] = biological target: T1, glutamate dehydrogenase (rGDH, recombinant) (Clostridium difficile, UniProt P27346 SEQ:1-421); assay: pulldown; 10 mM MgCl2, 150 mM NaCl, pH 7.2, 25 C; epitope distinct from aptamer 2; conditions: tags: His-tag; expressed in E. coli; Pro-Lab Diagnostics; chain copies: 6; label: 32P
T1 sequence: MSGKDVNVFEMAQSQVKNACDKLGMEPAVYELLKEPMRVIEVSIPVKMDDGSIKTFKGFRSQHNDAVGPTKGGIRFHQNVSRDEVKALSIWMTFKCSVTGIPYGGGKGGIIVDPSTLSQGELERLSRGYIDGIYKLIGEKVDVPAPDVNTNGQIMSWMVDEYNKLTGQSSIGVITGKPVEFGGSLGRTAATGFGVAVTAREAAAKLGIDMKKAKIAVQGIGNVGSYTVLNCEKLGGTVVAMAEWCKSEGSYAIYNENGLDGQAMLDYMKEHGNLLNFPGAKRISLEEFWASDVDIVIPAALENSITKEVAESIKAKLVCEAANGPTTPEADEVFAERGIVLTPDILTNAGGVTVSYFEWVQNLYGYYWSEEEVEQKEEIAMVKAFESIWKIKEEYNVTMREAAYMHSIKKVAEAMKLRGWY
Method: (§1) Following three washing steps, proteins and bound aptamers were eluted with 30 μL of elution buffer (20 mM Tris-HCl, 500 mM imidazole, pH 7.5) by shaking at 90° C. for 10 min. The resultant mixtures were then analyzed by 10% dPAGE, and quantified by Image Quant software. […] Pull-down assays were conducted in a total volume of 300 μL of 1× binding buffer containing 10 μL of bead-bound rGDH (final concentration ˜9.2 nM) and 100 μL of aptamers with serial dilutions for 30 min with gentle rotation. Following washing steps, the bound DNA was then analyzed by 10% dPAGE. The apparent dissociation constants (Kd) of each aptamer candidate were obtained by fitting the fractional bound DNA to the total aptamer concentration using a one-site binding model.
(§2) The inventors measured the dissociation constant (Kd) for Capt-2 and Capt-4 using the same pull-down assay, along with their linear counterparts, Lapt-2 and Lapt-4 (FIG. 2b). […] The structural prediction with the m-fold program (http: //unafold.rna.albany.edu/?q=mfold) also provides a good rationale for the functionality of aptamer 2 in both circular and linear configurations, as the random-sequence nucleotides are predicted to form the same structural elements in both forms (FIG. 9). […]

[5] = biological target: T2, glutamate dehydrogenase (nGDH, native) (Clostridium difficile, UniProt P27346 SEQ:1-421); assay: FP filter; paper filter binding; binding buffer with 10 mM MgCl2, 1% BSA; conditions: tags: Pro-Lab Diagnostics; chain copies: 6 stated; label: 32P
T2 sequence: T1 sequence

[6] = biological target: T1, glutamate dehydrogenase (rGDH, …); assay: pulldown; 10 mM MgCl2, pH 7.2, 25 C; no detectable binding in dot blot (p157); conditions: tags: His-tag; expressed in E. coli; Pro-Lab Diagnostics; chain copies: 6; label: 32P; linear
Method: as §1, §2

[7] = biological target: T1, glutamate dehydrogenase (rGDH, …); assay: pulldown; […]; 50 mM HEPES, 150 mM NaCl, 10 mM MgCl2, 5 mM KCl, 0.02% Tween-20, pH 7.2, 25 C; conditions: tags: His-tag; expressed in E. coli; Pro-Lab Diagnostics; chain copies: 6; label: 32P
[8] = biological target: T1, glutamate dehydrogenase (rGDH, …); assay: pulldown; conditions: tags: His-tag; expressed in E. coli; Pro-Lab Diagnostics; chain copies: 6; label: 32P; linear
Method: 100 μL of 1× binding buffer containing 100 nM γ-[³²P]-labeled captamer candidates was first denatured at 90° C. for 10 min, followed by incubation at RT for 20 min. The pull-down assays were conducted in a total volume of 300 μL of 1× binding buffer containing 50 μL of bead-bound rGDH (final concentration ˜50 nM) and 100 μL of 100 nM captamer candidates for 30 min with gentle rotation. In parallel, negative controls consisting of the captamers incubated with uncoated beads were included. Following three washing steps, proteins and bound aptamers were eluted with 30 μL of elution buffer (20 mM Tris-HCl, 500 mM imidazole, pH 7.5) by shaking at 90° C. for 10 min. The resultant mixtures were then analyzed by 10% dPAGE, and quantified by Image Quant software. […] Pull-down assays were conducted in a total volume of 300 μL of 1× binding buffer containing 10 μL of bead-bound rGDH (final concentration ˜9.2 nM) and 100 μL of aptamers with serial dilutions for 30 min with gentle rotation. Following washing steps, the bound DNA was then analyzed by 10% dPAGE. […]
The inventors measured the dissociation constant (Kd) for Capt-2 and Capt-4 using the same pull-down assay, along with their linear counterparts, Lapt-2 and Lapt-4 (FIG. 2b). […]

[9] = biological target: T1, glutamate dehydrogenase (rGDH, …); assay: pulldown; competes with Anti-G1T1, same epitope; conditions: tags: His-tag; expressed in E. coli; Pro-Lab Diagnostics; chain copies: 6; label: 32P; linear
[10] = biological target: T1, glutamate dehydrogenase (rGDH, …); assay: pulldown; no affinity to rGDH; conditions: tags: His-tag; expressed in E. coli; Pro-Lab Diagnostics; chain copies: 6; label: 32P
Method: as §1, with “The pull-down assays were conducted in a total volume of 300 μL of 1× binding buffer containing 50 μL of bead-bound rGDH (final concentration ˜50 nM) and 100 μL of 100 nM captamer candidates for 30 min with gentle rotation. In parallel, negative controls consisting of the captamers incubated with uncoated beads were included. Following three” for “Following three”
However, Capt-4 was a new sequence that was not observed in the previous selection. […] In this assay, each captamer candidate was incubated with bare NiMBs or rGDH-coated NiMBs, followed by elution of the bound captamer and radioactivity analysis by dPAGE (FIG. 2a).

[11] = biological target: T1, glutamate dehydrogenase (rGDH, …); assay: pulldown; competes with Anti-G1, Anti-G3, Anti-G7; conditions: tags: His-tag; expressed in E. coli; Pro-Lab Diagnostics; chain copies: 6; label: 32P; linear

toxin A (TcdA), sequence (P16154 whole entry): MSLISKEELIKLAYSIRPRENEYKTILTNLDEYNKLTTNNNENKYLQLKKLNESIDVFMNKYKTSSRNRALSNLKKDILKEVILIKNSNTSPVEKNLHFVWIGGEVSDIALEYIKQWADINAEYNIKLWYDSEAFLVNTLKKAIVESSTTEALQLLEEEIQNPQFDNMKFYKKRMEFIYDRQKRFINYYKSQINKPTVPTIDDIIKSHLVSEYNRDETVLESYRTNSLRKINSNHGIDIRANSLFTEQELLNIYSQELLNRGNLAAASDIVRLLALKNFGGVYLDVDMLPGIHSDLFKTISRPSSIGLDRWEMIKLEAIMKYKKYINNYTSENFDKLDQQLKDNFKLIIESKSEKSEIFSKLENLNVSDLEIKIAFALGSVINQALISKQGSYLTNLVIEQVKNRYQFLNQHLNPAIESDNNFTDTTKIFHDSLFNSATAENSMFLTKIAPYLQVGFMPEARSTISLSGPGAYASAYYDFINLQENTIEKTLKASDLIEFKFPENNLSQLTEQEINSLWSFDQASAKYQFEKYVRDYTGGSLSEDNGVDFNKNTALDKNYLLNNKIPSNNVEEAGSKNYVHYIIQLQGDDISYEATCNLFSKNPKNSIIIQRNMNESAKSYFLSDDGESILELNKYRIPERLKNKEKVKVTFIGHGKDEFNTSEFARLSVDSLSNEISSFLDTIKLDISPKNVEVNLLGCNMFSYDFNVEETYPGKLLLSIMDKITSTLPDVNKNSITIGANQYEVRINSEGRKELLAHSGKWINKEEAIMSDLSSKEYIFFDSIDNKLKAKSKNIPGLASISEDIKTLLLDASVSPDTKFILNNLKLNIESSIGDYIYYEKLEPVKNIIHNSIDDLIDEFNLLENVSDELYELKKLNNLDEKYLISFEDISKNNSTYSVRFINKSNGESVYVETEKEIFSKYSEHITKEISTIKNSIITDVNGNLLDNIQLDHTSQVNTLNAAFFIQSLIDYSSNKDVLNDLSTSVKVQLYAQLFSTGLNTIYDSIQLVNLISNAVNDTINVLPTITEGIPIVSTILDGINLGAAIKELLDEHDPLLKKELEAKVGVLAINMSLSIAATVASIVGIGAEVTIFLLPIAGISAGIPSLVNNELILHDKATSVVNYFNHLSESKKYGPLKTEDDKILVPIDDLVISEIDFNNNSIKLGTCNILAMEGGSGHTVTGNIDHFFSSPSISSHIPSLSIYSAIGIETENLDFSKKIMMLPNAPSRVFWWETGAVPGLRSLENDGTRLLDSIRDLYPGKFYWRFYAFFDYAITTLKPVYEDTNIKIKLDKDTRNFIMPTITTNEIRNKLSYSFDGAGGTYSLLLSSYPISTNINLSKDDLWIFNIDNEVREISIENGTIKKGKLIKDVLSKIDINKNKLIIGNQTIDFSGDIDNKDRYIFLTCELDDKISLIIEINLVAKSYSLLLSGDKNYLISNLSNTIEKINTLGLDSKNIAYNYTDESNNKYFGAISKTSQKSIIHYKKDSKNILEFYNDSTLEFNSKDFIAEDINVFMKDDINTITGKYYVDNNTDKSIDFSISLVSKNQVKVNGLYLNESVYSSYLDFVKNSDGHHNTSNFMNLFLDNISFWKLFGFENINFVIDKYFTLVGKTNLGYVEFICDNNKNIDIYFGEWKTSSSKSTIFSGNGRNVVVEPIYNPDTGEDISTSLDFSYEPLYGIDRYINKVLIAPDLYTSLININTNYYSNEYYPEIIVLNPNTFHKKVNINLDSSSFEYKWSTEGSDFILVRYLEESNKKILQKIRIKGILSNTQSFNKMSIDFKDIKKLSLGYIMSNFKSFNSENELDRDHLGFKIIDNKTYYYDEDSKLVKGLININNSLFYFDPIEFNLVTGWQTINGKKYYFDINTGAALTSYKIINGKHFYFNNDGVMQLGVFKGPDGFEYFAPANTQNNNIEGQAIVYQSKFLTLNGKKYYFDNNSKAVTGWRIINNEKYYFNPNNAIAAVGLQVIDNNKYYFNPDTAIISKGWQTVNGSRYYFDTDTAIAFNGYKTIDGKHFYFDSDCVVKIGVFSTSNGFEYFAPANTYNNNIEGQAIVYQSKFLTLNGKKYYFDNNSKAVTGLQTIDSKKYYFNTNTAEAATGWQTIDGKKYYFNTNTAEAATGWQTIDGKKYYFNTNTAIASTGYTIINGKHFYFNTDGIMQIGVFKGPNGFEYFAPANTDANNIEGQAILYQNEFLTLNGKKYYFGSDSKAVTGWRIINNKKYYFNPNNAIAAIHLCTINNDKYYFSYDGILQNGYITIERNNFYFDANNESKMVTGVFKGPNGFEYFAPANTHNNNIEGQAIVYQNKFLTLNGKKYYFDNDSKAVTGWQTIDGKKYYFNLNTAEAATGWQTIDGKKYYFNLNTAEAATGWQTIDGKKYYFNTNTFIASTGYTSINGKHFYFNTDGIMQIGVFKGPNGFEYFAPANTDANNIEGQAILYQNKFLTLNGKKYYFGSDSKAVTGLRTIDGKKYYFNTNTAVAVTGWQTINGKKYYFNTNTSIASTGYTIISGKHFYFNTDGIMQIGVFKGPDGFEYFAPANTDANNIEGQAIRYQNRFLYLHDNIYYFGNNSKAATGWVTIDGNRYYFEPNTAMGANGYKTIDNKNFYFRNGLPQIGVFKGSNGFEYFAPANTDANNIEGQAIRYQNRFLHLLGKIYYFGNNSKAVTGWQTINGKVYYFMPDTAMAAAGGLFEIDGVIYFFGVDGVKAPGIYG
bovine serum albumin (BSA), sequence (P02769 25-607, one chain of several): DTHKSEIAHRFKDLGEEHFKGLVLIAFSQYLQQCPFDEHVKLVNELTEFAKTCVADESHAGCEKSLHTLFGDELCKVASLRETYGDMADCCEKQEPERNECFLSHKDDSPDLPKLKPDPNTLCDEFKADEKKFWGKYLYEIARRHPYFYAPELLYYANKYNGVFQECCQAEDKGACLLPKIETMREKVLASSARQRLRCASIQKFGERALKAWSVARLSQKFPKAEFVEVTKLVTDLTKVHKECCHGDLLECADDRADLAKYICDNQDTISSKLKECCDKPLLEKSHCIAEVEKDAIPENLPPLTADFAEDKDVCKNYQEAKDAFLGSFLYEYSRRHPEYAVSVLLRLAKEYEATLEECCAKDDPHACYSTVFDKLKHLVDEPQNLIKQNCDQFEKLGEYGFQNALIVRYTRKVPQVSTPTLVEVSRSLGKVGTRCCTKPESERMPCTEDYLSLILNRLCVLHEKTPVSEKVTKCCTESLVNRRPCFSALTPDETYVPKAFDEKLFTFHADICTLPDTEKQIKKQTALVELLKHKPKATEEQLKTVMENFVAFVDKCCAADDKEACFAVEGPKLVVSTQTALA

B1: Capt-4 (ssDNA)
DNA: CAGGTCCATCGAGTGGTAGGACGACCCGAATAGTGGCATATCAATGAGTGCTTGTCATCTTTCGCACTGCTCCTGAACGTAC
B1: no binding [1]; no binding [2]; no binding [3]. For the same binder, the Kd [4] was 12.3 nM and the Kd [5] was 2.8 nM.

B2: Lapt-4 (ssDNA)
DNA: B1 DNA
For B2, the Kd [6] was 293 nM.

B3: Capt-2 (ssDNA)
DNA: CAGGTCCATCGAGTGGTAGGAGGAGGTATTTAGTGCCAAGCCATCTCAAACGACGTCTGAGTCGCACTGCTCCTGAACGTAC
Binder B3 has a Kd [7] of 4.4 nM.

B4: Lapt-2 (Anti-G1) (ssDNA)
DNA: B3 DNA
B4 was tested, and the Kd [8] was 5.6 nM.

B5: Anti-G3 (ssDNA)
DNA: CAGGTCCATCGAGTGGTAGGATGCAGCGGACAGTGTGGGACCATCGCTGCGGATGTATGAATCGCACTGCTCCTGAACGTAC
B5: binds [9].

B6: Scrambled Capt-2 (ssDNA)
DNA: CGGGAGTACGCATGTATGAGACACCCACGCTATGTCCCTACTATGAGGTGGAGACTTGCTACGTGCATCGCAGATCGGTCAA
B6: no binding [10].

B7: Scrambled Capt-4 (ssDNA)
DNA: GAAGGATTCGGACTAGGATCCGGTCCAACTACCGGTGCCCTAATGGCATCAAAACTGCGTACCGAGCGTGTTTATCTTTCTG
B7: no binding [10].

B8: Anti-G1T1 (ssDNA)
DNA: TAGGAGGAGGTATTTAGTGCCAAGCCATCTCAAACGACGTCTGAGTCGCACTGCTCCTG
B8: binds [11].

B9: Anti-G7 (ssDNA)
DNA: CAGGTCCATCGAGTGGTAGGACCCAACCCACGATGCGCAAGAGGAATGCAGCCTACCAGCATCGCACTGCTCCTGAACGTAC
B9: binds [9].
